Experimental data published in article PMC7666225.

Tests used:
[1] = target: thrombin
[2] = target: thrombin; remark: listed apart in the source
[3] = target: thrombin; remark: listed apart in the source

“hirudin variant 1 with its endogenous wild-type signal peptide (WT-HV1), cell-free synthesized in CHO cell lysate (from UniProt P01050 1-65) (natural protein)” was tested, and the thrombin time test, clotting time with 10 µl SN2 fraction [1] was 94 s and the thrombin time test at equimolar 3.1 nmol/l, elongation of TT against rHV1 (fold against rHV1) [2] was 9.

“hirudin variant 1 with its endogenous wild-type signal peptide (WT-HV1), cell-free synthesized in K562 cell lysate (from UniProt P01050 1-65) (natural protein)” was tested, and the thrombin time test, clotting time with 10 µl SN2 fraction [1] was 242 s, the thrombin time test at equimolar 3.1 nmol/l, effect against rHV1 (fold against rHV1) [2] was 100 and the thrombin time test at 1, 4.9 and 9.8 nmol/l, potency against Mel-HV1 (fold against Mel-HV1) [3] was > 10.

With “hirudin variant 1 with its endogenous wild-type signal peptide (WT-HV1), cell-free synthesized in Sf21 cell lysate (from UniProt P01050 1-65) (natural protein)” the thrombin time test, clotting time with 10 µl SN2 fraction [1] was 50 s and the thrombin time test at equimolar 3.1 nmol/l, elongation of TT against rHV1 (fold against rHV1) [2] was > 2.
